The source of these data is patent US20140274782A1 (Stanford University, published 2014).

What all share (assay): ProtoArray, GST-treated control array;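 further: human protein microarray (about 9500 recombinant proteins) incubated overnight with GST alone plus SAM cofactor as the negative control for G9a SET domain methylation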
In test [1] the target is TMEM97-transmembrane protein 97 (TMEM97) (human, UniProt Q5BJF2 1-176).
In test [2] the target is T1, TMED5-transmembrane emp24 protein transport domain containing 5 (TMED5) (human, UniProt Q9Y3A6 28-229, limits assumed).
T1 sequence (looked up): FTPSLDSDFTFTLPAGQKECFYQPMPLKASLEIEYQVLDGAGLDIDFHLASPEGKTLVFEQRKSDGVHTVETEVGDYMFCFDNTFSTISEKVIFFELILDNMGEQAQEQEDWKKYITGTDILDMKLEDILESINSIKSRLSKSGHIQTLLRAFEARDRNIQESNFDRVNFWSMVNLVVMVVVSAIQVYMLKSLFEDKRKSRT

For test [3], the target named is T2, PPIL5-Peptidylprolyl isomerase-like 5 (human, UniProt Q96L50 1-414, limits assumed).
T2 sequence (looked up): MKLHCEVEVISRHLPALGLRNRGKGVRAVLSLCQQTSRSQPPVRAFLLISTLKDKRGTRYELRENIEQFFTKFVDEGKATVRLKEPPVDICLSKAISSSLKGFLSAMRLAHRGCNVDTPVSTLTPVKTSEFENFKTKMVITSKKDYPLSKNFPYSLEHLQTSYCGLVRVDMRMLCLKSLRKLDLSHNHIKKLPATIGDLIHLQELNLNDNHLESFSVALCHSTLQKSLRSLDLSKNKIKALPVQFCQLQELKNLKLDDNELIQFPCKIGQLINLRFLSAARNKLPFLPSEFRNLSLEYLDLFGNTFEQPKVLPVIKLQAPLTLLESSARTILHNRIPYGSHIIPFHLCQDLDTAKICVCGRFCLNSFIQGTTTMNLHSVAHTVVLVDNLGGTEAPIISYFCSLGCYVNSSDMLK

The target in test [4] is T3, Magmas-mitochondria-associated protein involved in granulocyte-macrophage colony-stimulating factor signal … (human, UniProt Q9Y3D7 1-125).
T3 sequence (looked up): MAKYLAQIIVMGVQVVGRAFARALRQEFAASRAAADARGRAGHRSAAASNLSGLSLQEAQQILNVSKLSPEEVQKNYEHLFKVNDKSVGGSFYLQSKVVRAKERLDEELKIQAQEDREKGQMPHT

The target in test [5] is MGC4473-hypothetical protein MGC4473 (MGC4473) (human).
Test [6] addresses T4, ZBP1-Z-DNA binding protein 1 (ZBP1) (human, UniProt Q9H171 1-429, limits assumed).
T4 sequence (looked up): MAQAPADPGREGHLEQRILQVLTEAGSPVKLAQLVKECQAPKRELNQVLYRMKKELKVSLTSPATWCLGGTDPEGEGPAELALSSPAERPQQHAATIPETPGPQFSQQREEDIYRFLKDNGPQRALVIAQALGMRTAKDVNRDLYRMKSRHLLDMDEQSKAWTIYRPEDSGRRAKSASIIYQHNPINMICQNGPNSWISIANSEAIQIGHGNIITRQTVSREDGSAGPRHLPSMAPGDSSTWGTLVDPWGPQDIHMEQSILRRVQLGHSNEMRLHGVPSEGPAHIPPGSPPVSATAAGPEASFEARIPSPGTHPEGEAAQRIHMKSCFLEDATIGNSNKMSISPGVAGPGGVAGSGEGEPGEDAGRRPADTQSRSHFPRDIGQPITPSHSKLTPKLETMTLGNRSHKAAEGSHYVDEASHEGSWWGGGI

In test [7] the target is T5, TCTA-T-cell leukemia translocation altered gene (TCTA) (human, UniProt P57738 1-103).
T5 sequence (looked up): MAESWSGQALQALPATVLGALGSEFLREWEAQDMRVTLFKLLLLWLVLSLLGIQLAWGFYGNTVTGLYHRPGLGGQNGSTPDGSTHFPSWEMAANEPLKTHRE

The target of test [8] is T6, SCGB1A1-secretoglobin, family 1A, member 1 (uteroglobin) (SCGB1A1) (human, UniProt P11684 22-91, limits assumed).
T6 sequence (looked up): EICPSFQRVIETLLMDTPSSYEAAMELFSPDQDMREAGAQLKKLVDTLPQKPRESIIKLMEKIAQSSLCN

Test [9] has as its target T7, UBE2S-Ubiquitin-conjugating enzyme E2 S (human, UniProt Q16763 1-222).
T7 sequence (looked up): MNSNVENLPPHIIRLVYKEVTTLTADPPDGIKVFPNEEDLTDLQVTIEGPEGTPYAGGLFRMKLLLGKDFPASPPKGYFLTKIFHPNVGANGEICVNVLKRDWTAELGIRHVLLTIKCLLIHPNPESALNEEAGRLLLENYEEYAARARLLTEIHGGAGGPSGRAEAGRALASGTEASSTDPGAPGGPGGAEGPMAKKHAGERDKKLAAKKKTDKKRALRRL

The target of test [10] is T8, MGC10433-RNA-binding protein 42 (human, UniProt Q9BTD8 1-480, limits assumed).
T8 sequence (looked up): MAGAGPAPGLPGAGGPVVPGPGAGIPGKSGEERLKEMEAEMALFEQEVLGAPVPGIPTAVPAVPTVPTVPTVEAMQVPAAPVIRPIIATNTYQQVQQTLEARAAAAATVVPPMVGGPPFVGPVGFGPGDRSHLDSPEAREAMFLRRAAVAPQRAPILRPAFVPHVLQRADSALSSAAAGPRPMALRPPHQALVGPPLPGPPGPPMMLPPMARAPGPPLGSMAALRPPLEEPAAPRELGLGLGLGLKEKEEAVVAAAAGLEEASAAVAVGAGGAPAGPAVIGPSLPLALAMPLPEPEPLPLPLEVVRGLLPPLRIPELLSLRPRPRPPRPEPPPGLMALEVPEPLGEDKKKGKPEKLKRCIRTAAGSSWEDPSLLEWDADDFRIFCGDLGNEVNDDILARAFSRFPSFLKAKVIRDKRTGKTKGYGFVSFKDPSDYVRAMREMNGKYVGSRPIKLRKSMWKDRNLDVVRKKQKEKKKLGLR

Test [11] addresses FTL-ferritin, light polypeptide (FTL) (human, UniProt P02792 1-175).

Sequence of TMEM97-transmembrane protein 97 (TMEM97) (Q5BJF2 whole entry, the tested form may be a part): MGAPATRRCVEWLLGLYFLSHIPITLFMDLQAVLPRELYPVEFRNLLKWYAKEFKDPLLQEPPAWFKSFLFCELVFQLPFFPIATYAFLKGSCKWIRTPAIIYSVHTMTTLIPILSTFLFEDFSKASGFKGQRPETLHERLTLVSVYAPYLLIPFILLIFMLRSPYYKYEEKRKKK
Sequence of FTL-ferritin, light polypeptide (FTL) (P02792 whole entry): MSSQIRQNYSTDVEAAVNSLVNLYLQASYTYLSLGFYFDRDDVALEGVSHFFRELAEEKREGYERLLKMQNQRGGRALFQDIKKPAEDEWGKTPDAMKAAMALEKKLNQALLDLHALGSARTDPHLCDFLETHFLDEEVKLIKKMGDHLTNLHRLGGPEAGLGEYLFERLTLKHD

B1: 3× Flag-3×MBT (designed binder)
chain: EEWSSSQPATGEKKECWSWESYLEEQKAITAPVSLFQDSQAVTHNKNGFKLGMKLEGIDPQHPSMYFILTVAEVCGYRLRLHFDGYSECHDFWVNANSPDIHPAGWFEKTGHKLQPPKGYKEEEFSWSQYLRSTRAQAAPKHLFVSQSHSPPPLGFQVGMKLEAVDRMNPSLVCVASVTDVVDSRFLVHFDNWDDTYDYWCDPSSPYIHPVGWCQKQGKPLTPPQDYPDPDNFCWEKYLEETGASAVPTWAFKVRPPHSFLVNMKLEAVDRRNPALIRVASVEDVEDHRIKIHFDGWSHGYDFWIDADHPDIHPAGWCSKTGHPLQPPLGPREPSSASPGG
notes: also called Flag-tagged 3×MBT; 3xFlag-3xMBT; not shown: made by PreScission cleavage of GST-3× Flag-3×MBT
Take B1: the “GST Average SNR” value in [1] is -1.53; in test [2], -0.425; in test [3] it was -0.512; in [4], -1.16; in [5], 0.0125; in [6], 0.628. Moreover, the “GST Average SNR” value is 1.18 in [7]; 1.16 in test [8]; 0.283 in test [9]; -0.357 in test [10]; 0.717 in test [11].
